From PMC3091956 come the findings set out here.

One may read the stoichiometry N as a count of units in the complex or per binding partner.

The assay concerns the target T1, 6xHis-Stg (N-terminally histidine-tagged full-length mouse stargazin) (mouse), O88602.
T1 chain: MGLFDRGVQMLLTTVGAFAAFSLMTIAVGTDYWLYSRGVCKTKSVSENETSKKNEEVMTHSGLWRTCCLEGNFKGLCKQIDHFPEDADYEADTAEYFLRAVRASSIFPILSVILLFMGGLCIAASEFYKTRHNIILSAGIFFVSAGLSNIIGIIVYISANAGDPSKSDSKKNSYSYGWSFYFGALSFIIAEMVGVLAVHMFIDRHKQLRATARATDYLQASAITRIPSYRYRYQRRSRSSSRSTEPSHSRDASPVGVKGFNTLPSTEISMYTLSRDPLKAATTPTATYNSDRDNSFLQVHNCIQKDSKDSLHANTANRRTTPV
The experiment in a line: electron crystallography of 2D crystals. The following applies: remark: other sources report otherwise.

B1: 6xHis-Stg (N-terminally histidine-tagged full-length mouse stargazin), O88602 1-323 (natural protein)
chain: MGLFDRGVQMLLTTVGAFAAFSLMTIAVGTDYWLYSRGVCKTKSVSENETSKKNEEVMTHSGLWRTCCLEGNFKGLCKQIDHFPEDADYEADTAEYFLRAVRASSIFPILSVILLFMGGLCIAASEFYKTRHNIILSAGIFFVSAGLSNIIGIIVYISANAGDPSKSDSKKNSYSYGWSFYFGALSFIIAEMVGVLAVHMFIDRHKQLRATARATDYLQASAITRIPSYRYRYQRRSRSSSRSTEPSHSRDASPVGVKGFNTLPSTEISMYTLSRDPLKAATTPTATYNSDRDNSFLQVHNCIQKDSKDSLHANTANRRTTPV
In the case of B1, the stoichiometry N is 2.
